{
  "source": "patent US8088892B2",
  "about": "“Inhibitors of proteins from the Rho-GEF family” (Centre National de la Recherche Scientifique (C.N.R.S.), priority 2002, dated 2012)",
  "molecules": {"B1": {"name": "TRIAPα: aptamer of 154 amino acids: variable region of 42 amino acids inserted into the thioredoxin protein; tested as GST fusion (protein)", "chain": "MSDKIIHLTDDSFDTDVLKADGAILVDFWAEWCGPAREGADGAICGYNLATLVMLGPSERVFCPLCEPCSSDIYELMGPCKMIAPILDEIADEYQGKLTVAKLNIDQNPGTAPKYGIRGIPTLLLFKNGEVASATKVGALSKGQLKEFLDANLA"}},
  "target": "T1, TrioGEFD2 (DH2PH2, amino acids 1848-2298) (Homo sapiens, UniProt O75962)",
  "T1 construct": "TrioGEFD2 (DH2PH2, amino acids 1848-2298); expressed in transfected cells; host or cells: yeast strain EGY048",
  "experiment": "Binding specificity of aptamers in yeast (two-hybrid, growth on selective medium)",
  "design": "key to Binding in yeast: +++^1 and +^1 represent respectively a full and a partial (see FIG. 1) binding capacity; +++^1 and +^1 represent respectively a full and a partial (see FIG. 1) binding capacity; −−^1 represents a lack of binding",
  "excerpt": "Trx represents the thioredoxin protein with no inserted peptide.\nIn order to identify specific inhibitors of TrioGEFD2, a recently developed strategy was used, this strategy being derived from the yeast two hybrid system, where the cDNA library of preys has been replaced by a combinatorial library of short peptides (20 amino acids) in fusion with the bacterial protein thioredoxin A (Colas et al., 1996). This strategy has been successfully used to isolate specific inhibitors of the cyclin-dependent kinases (Cdks), the cell cycle transcription factor E2F, or the viral HPV16 E6 oncoprotein and HBEV core protein (Colas et al., 1996; Butz et al., 2001; Fabrizzio et al., 1999; Geyer et al., 2000). The TrioGEFD2 bait was constructed as follows: plasmid pMTHATrio1848-2298 (Bellanger et al., 1998) was digested with EcoRI/XhoI and the insert cloned in pEG202EcoRI/XhoI to generate the bait pEG202TroGEFD2. Yeast strain EGY048 (Colas et al., 1996) was transformed with pEG202TrioGEFD2 and subsequently with the library of Thioredoxin constrained aptamers according to standard procedures (Ito et al., 1983). After transformation, cells were allowed to recover for 4 hours in galactose containing medium before plating on selective galactose medium. Of the 2×10^6 screened colonies, those growing in the selective medium were recovered and retested for interaction. […]",
  "data": [
    {"molecule": "B1", "values": [
      {"measurement": "Binding in yeast", "setting": "RhoGEF TrioDH2PH2", "result": "+++^1"},
      {"measurement": "Binding to TrioGEFD2 (DH2PH2) in yeast", "setting": "growth on selective medium", "result": "binding to TrioGEFD2"}
    ]}
  ]
}
